Data set [1] deals with T1, Mtr4ΔF (fist-less) (Saccharomyces cerevisiae, UniProt P47047 1-666+=GGG+814-1073, internal_change).
T1 sequence: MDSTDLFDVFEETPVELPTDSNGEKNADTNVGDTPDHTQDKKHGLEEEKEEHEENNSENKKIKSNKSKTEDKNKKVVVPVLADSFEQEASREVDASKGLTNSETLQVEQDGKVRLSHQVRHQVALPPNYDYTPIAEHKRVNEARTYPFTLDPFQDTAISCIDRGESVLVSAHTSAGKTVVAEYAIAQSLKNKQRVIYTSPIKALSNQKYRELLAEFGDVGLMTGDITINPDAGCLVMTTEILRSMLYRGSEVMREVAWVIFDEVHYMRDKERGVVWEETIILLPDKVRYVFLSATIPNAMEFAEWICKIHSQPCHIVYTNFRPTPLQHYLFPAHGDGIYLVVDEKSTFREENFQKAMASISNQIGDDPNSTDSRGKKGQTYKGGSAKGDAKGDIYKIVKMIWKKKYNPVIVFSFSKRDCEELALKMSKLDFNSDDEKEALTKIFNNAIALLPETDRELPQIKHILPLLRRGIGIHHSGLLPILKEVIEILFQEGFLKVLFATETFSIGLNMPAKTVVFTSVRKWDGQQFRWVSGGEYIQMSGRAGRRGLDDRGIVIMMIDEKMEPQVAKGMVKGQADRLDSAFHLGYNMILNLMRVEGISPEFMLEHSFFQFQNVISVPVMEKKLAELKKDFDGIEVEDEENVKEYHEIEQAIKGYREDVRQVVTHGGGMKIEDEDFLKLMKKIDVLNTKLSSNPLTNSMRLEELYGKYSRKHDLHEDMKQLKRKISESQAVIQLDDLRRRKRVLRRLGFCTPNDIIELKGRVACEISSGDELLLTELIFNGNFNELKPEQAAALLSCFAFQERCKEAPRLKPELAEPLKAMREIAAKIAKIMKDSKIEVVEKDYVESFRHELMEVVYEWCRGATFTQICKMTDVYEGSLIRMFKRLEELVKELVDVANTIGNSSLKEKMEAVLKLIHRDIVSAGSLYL
Put plainly: HDX-MS.

The next data set deals with T2, Mtr4WT (Saccharomyces cerevisiae, UniProt P47047 1-1073).
T2 sequence: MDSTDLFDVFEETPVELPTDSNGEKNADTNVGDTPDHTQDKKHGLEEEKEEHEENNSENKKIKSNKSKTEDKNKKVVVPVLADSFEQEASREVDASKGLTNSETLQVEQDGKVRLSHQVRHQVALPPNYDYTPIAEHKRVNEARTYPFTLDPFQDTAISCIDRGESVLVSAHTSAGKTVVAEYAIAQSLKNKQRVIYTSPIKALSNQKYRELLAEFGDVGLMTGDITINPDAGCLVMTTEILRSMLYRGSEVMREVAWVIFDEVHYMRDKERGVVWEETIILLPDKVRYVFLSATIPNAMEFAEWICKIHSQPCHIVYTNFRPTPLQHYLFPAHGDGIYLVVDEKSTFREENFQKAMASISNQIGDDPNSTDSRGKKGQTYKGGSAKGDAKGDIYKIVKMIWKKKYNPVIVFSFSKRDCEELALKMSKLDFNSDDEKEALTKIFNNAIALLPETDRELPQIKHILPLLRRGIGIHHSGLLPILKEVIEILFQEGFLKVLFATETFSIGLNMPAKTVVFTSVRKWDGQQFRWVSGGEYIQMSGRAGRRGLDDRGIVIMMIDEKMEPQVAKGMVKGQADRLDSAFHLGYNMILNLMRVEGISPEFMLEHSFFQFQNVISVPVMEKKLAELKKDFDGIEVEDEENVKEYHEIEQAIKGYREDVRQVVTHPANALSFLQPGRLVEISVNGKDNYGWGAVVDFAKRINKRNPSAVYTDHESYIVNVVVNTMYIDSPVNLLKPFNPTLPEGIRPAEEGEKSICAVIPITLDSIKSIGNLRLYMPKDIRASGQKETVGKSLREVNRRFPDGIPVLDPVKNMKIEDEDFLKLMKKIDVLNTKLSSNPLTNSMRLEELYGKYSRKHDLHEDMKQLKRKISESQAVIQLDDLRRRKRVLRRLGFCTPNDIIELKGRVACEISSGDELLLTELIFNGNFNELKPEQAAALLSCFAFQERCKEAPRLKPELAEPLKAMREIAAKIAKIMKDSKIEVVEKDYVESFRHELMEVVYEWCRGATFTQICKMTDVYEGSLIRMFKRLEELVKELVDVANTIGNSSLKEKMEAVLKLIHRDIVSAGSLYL
Put plainly: EMSA.

In data set [2] the target is T1, Mtr4ΔF (fist-less). Kind of data set: EMSA.

The Kd is the constant that tells how readily two partners part at equilibrium. A higher Kd goes with weaker binding.

B1: tRNAiMet (structured_RNA)
RNA: GGGGUUCACUGCCGUAUAGGCAGAGCGCCGUGGCGCAGUGGAAGCGCGCAGGGCUCAUAACCCUGAUGUCCUCGGAUCGAAACCGAGCGGCGCCAAAAAAAAACGC
modifications: none (hypomodified, in vitro transcript)
Turning to B1, in the data set with Mtr4ΔF (fist-less) [1], the binding result was “binds”. In addition, the Kd in the data set with Mtr4WT turned out to be 270 ± 20 nM.

B2: dsRNA32 (dsRNA)
RNA 1: GCAGGAGCCUAGCUGAAAGAUGUCCUCGGAUCGACGCGUCUUUACGGUGCUUAAAAA
RNA 2: AGCACCGUAAAGACGC
Take B2: the binding result with Mtr4ΔF (fist-less) [1] is “binds”. In the data set with Mtr4WT, the Kd came to 570 ± 30 nM.

B3: dsRNA16 (dsRNA)
RNA 1: GCGUCUUUACGGUGCUUAAAAA
RNA 2: AGCACCGUAAAGACGC
Consider B3, for which the values for the Kd with Mtr4WT and with Mtr4ΔF (fist-less) [2] were 1140 ± 80 nM and 1420 ± 220 nM, respectively.
With GCGUCUUUACGGUGCUUAAAACAAAACAAAACAAAACAAAAA (ssRNA) [ssRNA42], the binding result with Mtr4ΔF (fist-less) [1] is “binds”. The molecule further gave a Kd in the data set with Mtr4WT of 420 ± 40 nM.

(Values after paper PMC9023267.)
